According to patent US5698421:
Where a chain is given by its changes, count along the chain named.

How the values were obtained:
[1] = biological target: T1, aI2-encoded protein P714T P714T (Saccharomyces cerevisiae) (UniProt P03876); test: cleavage_in_vitro; settings: relative to Example 1 RNP
T1 sequence: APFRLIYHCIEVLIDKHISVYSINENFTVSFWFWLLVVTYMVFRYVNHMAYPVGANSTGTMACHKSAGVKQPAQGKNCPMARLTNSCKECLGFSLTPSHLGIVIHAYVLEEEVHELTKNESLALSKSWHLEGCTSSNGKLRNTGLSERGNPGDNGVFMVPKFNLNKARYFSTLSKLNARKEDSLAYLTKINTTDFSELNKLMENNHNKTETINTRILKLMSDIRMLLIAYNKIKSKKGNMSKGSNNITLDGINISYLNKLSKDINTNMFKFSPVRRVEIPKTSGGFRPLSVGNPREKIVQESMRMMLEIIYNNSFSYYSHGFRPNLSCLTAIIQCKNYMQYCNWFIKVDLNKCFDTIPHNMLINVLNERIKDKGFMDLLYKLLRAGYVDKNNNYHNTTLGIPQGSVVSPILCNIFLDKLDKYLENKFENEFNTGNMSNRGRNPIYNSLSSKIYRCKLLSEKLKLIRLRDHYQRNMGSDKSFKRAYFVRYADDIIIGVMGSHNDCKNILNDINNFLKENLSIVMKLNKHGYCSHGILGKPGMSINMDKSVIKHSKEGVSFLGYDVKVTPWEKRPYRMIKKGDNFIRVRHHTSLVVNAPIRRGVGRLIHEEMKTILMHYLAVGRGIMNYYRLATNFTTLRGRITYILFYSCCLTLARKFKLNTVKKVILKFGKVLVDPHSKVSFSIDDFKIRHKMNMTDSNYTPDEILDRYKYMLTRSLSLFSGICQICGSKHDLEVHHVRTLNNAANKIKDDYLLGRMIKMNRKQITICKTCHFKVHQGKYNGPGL

[2] = biological target: T2, aI2-encoded protein (wild-type, 62 kDa), aI2 RNP particle (Saccharomyces cerevisiae) (UniProt P03876); test: cleavage_in_vitro; settings: 20 mM Mg
T2 sequence: T1 sequence with T714P

Substance | relative cleavage activity ([1]; antisense strand) | relative cleavage activity ([1]; sense strand) | binding signal (relative rate) [2]
excised aI2 RNA, strain-specific mutated ; pE2E3-derived substrate, E2-E3 target | 6% | 25% | –
excised aI2 intron RNA ; pE2E3 142 nt RNA substrate | – | – | 1
